Experimental data: paper PMC11539162, “Distinct roles for the domains of the mitochondrial aspartate/glutamate carrier citrin in organellar localization and substrate transport” (Molecular Metabolism, 2024)
Substitutions are numbered along the chain they refer to. In names and notes the source's numbering stands.

B1: human citrin (mitochondrial aspartate/glutamate carrier isoform 2), full-length wild type (natural protein, UniProt Q9UJS0-1 1-675, looked up)
chain: MAAAKVALTKRADPAELRTIFLKYASIEKNGEFFMSPNDFVTRYLNIFGESQPNPKTVELLSGVVDQTKDGLISFQEFVAFESVLCAPDALFMVAFQLFDKAGKGEVTFEDVKQVFGQTTIHQHIPFNWDSEFVQLHFGKERKRHLTYAEFTQFLLEIQLEHAKQAFVQRDNARTGRVTAIDFRDIMVTIRPHVLTPFVEECLVAAAGGTTSHQVSFSYFNGFNSLLNNMELIRKIYSTLAGTRKDVEVTKEEFVLAAQKFGQVTPMEVDILFQLADLYEPRGRMTLADIERIAPLEEGTLPFNLAEAQRQKASGDSARPVLLQVAESAYRFGLGSVAGAVGATAVYPIDLVKTRMQNQRSTGSFVGELMYKNSFDCFKKVLRYEGFFGLYRGLLPQLLGVAPEKAIKLTVNDFVRDKFMHKDGSVPLAAEILAGGCAGGSQVIFTNPLEIVKIRLQVAGEITTGPRVSALSVVRDLGFFGIYKGAKACFLRDIPFSAIYFPCYAHVKASFANEDGQVSPGSLLLAGAIAGMPAASLVTPADVIKTRLQVAARAGQTTYSGVIDCFRKILREEGPKALWKGAGARVFRSSPQFGVTLLTYELLQRWFYIDFGGVKPMGSEPVPKSRINLPAPNPDHVGGYKLAVATFAGIENKFGLYLPLFKPSVSTSKAIGGGP
notes: human citrin (AGC2), full length, codon-optimised cDNA; UniProt Q9UJS0, isoform NP_055066.1; The tag is followed by a TEV site (ENLYFQG); the protein was released from the resin by TEV digestion; NP_055066.1 is printed for the mammalian construct; the yeast construct is called a codon-optimised cDNA of human citrin; also called AGC2; wild-type citrin; source: S. cerevisiae W303-1B, mitochondria …
B2: human citrin D66A/T68A/D70A/E77A, full-length calcium-binding site mutant (natural protein, UniProt Q9UJS0-1 1-675, looked up)
chain: B1 chain with D66A, T68A, D70A, E77A
notes: Same construct as m1 apart from the four substitutions; also called quadruple alanine mutant; quadruple mutant; source: S. cerevisiae W303-1B, mitochondria solubilised in LMNG, purified (nickel Sepharose, on-column TEV digestion); not shown: His8, N-terminal, cleaved

Biological target: the molecule itself
Assay: SEC; size exclusion chromatography of purified full-length citrin and of the calcium-binding site mutant; column and buffer not told

Protein	stoichiometry N
B1	2
B2	2
